Source: PMC4105854
pKd: −log10 of the molar value.

System: DNA gyrase
Test: single-molecule T7 transcription elongation rate titrated with gyrase
Settings: multiple biotin (topologically constrained); not given in the held text

Work on “nuoB-N template with multiple biotins (~12 kb)” yielded a pKd of 7.00.
